Data reported in paper PMC2725191.

Target: Biotinylated tubulin (bovine brain tubulin labelled with NHS-LC-biotin), held on a streptavidin layer (bovine) (UniProt Q6B856)
Experiment: dual polarization interferometry

“Tubulin (alpha/beta heterodimer), purified from bovine brain (from UniProt Q6B856 1-445) (complex)” showed a rate of thickness increase after the inflection point (microtubule growth) of 0.436 nm/min.
